These results are taken from PMC9604360 (2022).

For this test, the target named is T1, Ribonuclease A (scrambled, oxidized) (Bos taurus, UniProt P61823).
T1 chain: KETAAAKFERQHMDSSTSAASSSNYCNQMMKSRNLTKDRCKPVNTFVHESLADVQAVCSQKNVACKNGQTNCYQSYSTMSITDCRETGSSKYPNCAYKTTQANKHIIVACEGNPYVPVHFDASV
Put plainly: intrinsic fluorescence quenching.

B1: MET 25-932 (protein)
chain: ECKEALAKSEMNVNMKYQLPNFTAETPIQNVILHEHHIFLGATNYIYVLNEEDLQKVAEYKTGPVLEHPDCFPCQDCSSKANLSGGVWKDNINMALVVDTYYDDQLISCGSVNRGTCQRHVFPHNHTADIQSEVHCIFSPQIEEPSQCPDCVVSALGAKVLSSVKDRFINFFVGNTINSSYFPDHPLHSISVRRLKETKDGFMFLTDQSYIDVLPEFRDSYPIKYVHAFESNNFIYFLTVQRETLDAQTFHTRIIRFCSINSGLHSYMEMPLECILTEKRKKRSTKKEVFNILQAAYVSKPGAQLARQIGASLNDDILFGVFAQSKPDSAEPMDRSAMCAFPIKYVNDFFNKIVNKNNVRCLQHFYGPNHEHCFNRTLLRNSSGCEARRDEYRTEFTTALQRVDLFMGQFSEVLLTSISTFIKGDLTIANLGTSEGRFMQVVVSRSGPSTPHVNFLLDSHPVSPEVIVEHTLNQNGYTLVITGKKITKIPLNGLGCRHFQSCSQCLSAPPFVQCGWCHDKCVRSEECLSGTWTQQICLPAIYKVFPNSAPLEGGTRLTICGWDFGFRRNNKFDLKKTRVLLGNESCTLTLSESTMNTLKCTVGPAMNKHFNMSIIISNGHGTTQYSTFSYVDPVITSISPKYGPMAGGTLLTLTGNYLNSGNSRHISIGGKTCTLKSVSNSILECYTPAQTISTEFAVKLKIDLANRETSIFSYREDPIVYEIHPTKSFISGGSTITGVGKNLNSVSVPRMVINVHEAGRNFTVACQHRSNSEIICCTTPSLQQLNLQLPLKTKAFFMLDGILSKYFDLIYVHNPVFKPFEKPVMISMGNENVLEIKGNDIDPEAVKGEVLKVGNKSCENIHLHSEAVLCTVPNDLLKLNSELNIEWKQAISSTVLGKVIVQPDQNFT
modifications: scrambled disulfides of RNase A
Consider B1, for which the Kd (as a rule, the free concentration of one partner at which half of the binding sites on the other are occupied at equilibrium, for simple one-to-one binding) was approximately 300 nM.
